The term Kd denotes the concentration at which binding is half-saturated. A low value points to a tighter complex.

This note sets out measurements from publication PMC2688836 (2010).

B1: NHERF1 PDZ2-CT E353A 150-358 (protein)
chain: LRPRLCTMKKGPSGYGFNLHSDKSKPGQFIRSVDPDSPAEASGLRAQDRIVEVNGVCMEGKQHGDVVSAIRAGGDETKLLVVDRETDEFFKKCRVIPSQEHLNGPLPVPFTNGEIQKENSREALAEAALESPRPALVRSASSDTSEELNSQDSPPKQDSTAPSSTSSSDPILDFNISLAMAKERAHQKRSSKRAPQMDWSKKNALFSNL
B2: NHERF1 PDZ2-CT E353P 150-358 (protein)
chain: LRPRLCTMKKGPSGYGFNLHSDKSKPGQFIRSVDPDSPAEASGLRAQDRIVEVNGVCMEGKQHGDVVSAIRAGGDETKLLVVDRETDEFFKKCRVIPSQEHLNGPLPVPFTNGEIQKENSREALAEAALESPRPALVRSASSDTSEELNSQDSPPKQDSTAPSSTSSSDPILDFNISLAMAKERAHQKRSSKRAPQMDWSKKNPLFSNL
B3: NHERF1 PDZ2-CT L358D 150-358 (protein)
chain: LRPRLCTMKKGPSGYGFNLHSDKSKPGQFIRSVDPDSPAEASGLRAQDRIVEVNGVCMEGKQHGDVVSAIRAGGDETKLLVVDRETDEFFKKCRVIPSQEHLNGPLPVPFTNGEIQKENSREALAEAALESPRPALVRSASSDTSEELNSQDSPPKQDSTAPSSTSSSDPILDFNISLAMAKERAHQKRSSKRAPQMDWSKKNELFSND
B4: NHERF1 PDZ2-CT 150-358 (protein)
chain: LRPRLCTMKKGPSGYGFNLHSDKSKPGQFIRSVDPDSPAEASGLRAQDRIVEVNGVCMEGKQHGDVVSAIRAGGDETKLLVVDRETDEFFKKCRVIPSQEHLNGPLPVPFTNGEIQKENSREALAEAALESPRPALVRSASSDTSEELNSQDSPPKQDSTAPSSTSSSDPILDFNISLAMAKERAHQKRSSKRAPQMDWSKKNELFSNL

C-CFTR 1411-1480, sequence (P13569 1411-1480): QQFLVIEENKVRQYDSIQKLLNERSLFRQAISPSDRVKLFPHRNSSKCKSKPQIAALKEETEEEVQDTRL

The test concerns the target C-CFTR 1411-1480 (Homo sapiens, UniProt P13569). In words: SPR.
In turn, B1 had a Kd of 2500 nM.

The molecule B2 yielded a Kd of 480 nM. This Kd lies about 5.2-fold lower than the previous one.

B3: binding was characterised by a dissociation constant (Kd) of 1600 nM.

Turning to B4, the Kd worked out at 2000 nM.
